Results from publication PMC6555833, “APC/C^CDH1 synchronizes ribose-5-phosphate levels and DNA synthesis to cell cycle progression” (Nature Communications, 2019).

B1: purified recombinant TKT (natural protein, human, UniProt P29401 1-623, looked up)
chain: MESYHKPDQQKLQALKDTANRLRISSIQATTAAGSGHPTSCCSAAEIMAVLFFHTMRYKSQDPRNPHNDRFVLSKGHAAPILYAVWAEAGFLAEAELLNLRKISSDLDGHPVPKQAFTDVATGSLGQGLGAACGMAYTGKYFDKASYRVYCLLGDGELSEGSVWEAMAFASIYKLDNLVAILDINRLGQSDPAPLQHQMDIYQKRCEAFGWHAIIVDGHSVEELCKAFGQAKHQPTAIIAKTFKGRGITGVEDKESWHGKPLPKNMAEQIIQEIYSQIQSKKKILATPPQEDAPSVDIANIRMPSLPSYKVGDKIATRKAYGQALAKLGHASDRIIALDGDTKNSTFSEIFKKEHPDRFIECYIAEQNMVSIAVGCATRNRTVPFCSTFAAFFTRAFDQIRMAAISESNINLCGSHCGVSIGEDGPSQMALEDLAMFRSVPTSTVFYPSDGVATEKAVELAANTKGICFIRTSRPENAIIYNNNEDFQVGQAKVVLKSKDDQVTVIGAGVTLHEALAAAELLKKEKINIRVLDPFTIKPLDRKLILDSARATKGRILTVEDHYYEGGIGEAVSSAVVGEPGITVTHLAVNRVPRSGKPAELLKMFGIDRDAIAQAVRGLITKA
notes: wild-type transketolase (TKT), human; in vector pSJ3; also called TKT homodimer; TKT-TKT; source: E. coli BL21 (DE3)pLysS, purified (nickel column)

What was measured:
[1] = molecular target: the molecule itself; test: native gel or EMSA; native gel electrophoresis of TKT, TKTL1-TKT and TKTL1
SPR = molecular target: the molecule itself; test: SPR
[2] = molecular target: the molecule itself; test: SPR; Biacore T200; TKT immobilised on a CM5 chip; constant of the TKT-TKT homodimer; the analyte series is not described
purified recombinant TKT [3] = molecular target: T1, purified recombinant TKT (human, UniProt P29401 1-623); test: SPR
T1 chain: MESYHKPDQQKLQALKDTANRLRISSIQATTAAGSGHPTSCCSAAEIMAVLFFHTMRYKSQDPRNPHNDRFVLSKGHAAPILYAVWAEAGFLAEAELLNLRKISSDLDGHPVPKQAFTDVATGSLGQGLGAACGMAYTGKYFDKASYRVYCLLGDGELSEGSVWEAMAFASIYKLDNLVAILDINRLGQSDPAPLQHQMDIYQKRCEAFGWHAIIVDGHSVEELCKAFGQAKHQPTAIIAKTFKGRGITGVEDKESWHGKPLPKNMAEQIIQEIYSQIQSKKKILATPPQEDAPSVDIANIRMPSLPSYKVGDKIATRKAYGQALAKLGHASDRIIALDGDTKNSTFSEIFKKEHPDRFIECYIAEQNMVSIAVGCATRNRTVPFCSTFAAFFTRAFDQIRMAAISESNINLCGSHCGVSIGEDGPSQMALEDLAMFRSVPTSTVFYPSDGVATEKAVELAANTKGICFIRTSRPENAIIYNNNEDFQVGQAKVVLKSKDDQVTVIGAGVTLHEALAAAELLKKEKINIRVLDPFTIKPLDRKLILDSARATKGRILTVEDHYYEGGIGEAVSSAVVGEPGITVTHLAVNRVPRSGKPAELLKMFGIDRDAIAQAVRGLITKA

purified recombinant TKT [4] = molecular target: B1; test: SPR; Biacore T200; TKT amine-coupled to a CM5 chip in 10 mM sodium acetate pH 5.5; TKTL1 in a series of concentrations starting at 65.9 nM; PBS buffer; conditions: both partners purified

| Binder | stoichiometry N [1] | koff (SPR) [s⁻¹] | Kd [2] [nM] | koff (purified recombinant TKT [3]) [s⁻¹] | Kd (purified recombinant TKT [4]) [nM] |
| --- | --- | --- | --- | --- | --- |
| B1 | 2 | 0.00777 | 118 | – | – |
| purified recombinant TKTL1 (natural protein, human, UniProt P51854 1-596, looked up, wild-type transketolase-like protein 1 (TKTL1), human; in vector pSJ3; also called TKTL1 monomer; source: E. coli BL21 (DE3)pLysS, purified (nickel column)) MADAEARAEFPEEARPDRGTLQVLQDMASRLRIHSIRATCSTSSGHPTSCSSSSEIMSVLFFYIMRYKQSDPENPDNDRFVLAKRLSFVDVATGWLGQGLGVACGMAYTGKYFDRASYRVFCLMSDGESSEGSVWEAMAFASYYSLDNLVAIFDVNRLGHSGALPAEHCINIYQRRCEAFGWNTYVVDGRDVEALCQVFWQASQVKHKPTAVVAKTFKGRGTPSIEDAESWHAKPMPRERADAIIKLIESQIQTSRNLDPQPPIEDSPEVNITDVRMTSPPDYRVGDKIATRKACGLALAKLGYANNRVVVLDGDTRYSTFSEIFNKEYPERFIECFMAEQNMVSVALGCASRGRTIAFASTFAAFLTRAFDHIRIGGLAESNINIIGSHCGVSVGDDGASQMALEDIAMFRTIPKCTIFYPTDAVSTEHAVALAANAKGMCFIRTTRPETMVIYTPQERFEIGQAKVLRHCVSDKVTVIGAGITVYEALAAADELSKQDIFIRVIDLFTIKPLDVATIVSSAKATEGRIITVEDHYPQGGIGEAVCAAVSMDPDIQVHSLAVSGVPQSGKSEELLDMYGISARHIIVAVKCMLLN | – | – | – | 0.0044 | 146 |
